Experimental data reported in the nanobody polyreactivity screen of Harvey et al. (2022).

Experiment: yeast display, Sf9 membrane polyspecificity reagent, FACS + sequencing; frameworks hold sequencing errors
Summary of the method: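 A nanobody's polyreactivity label depends on the gate it was sorted from. Yeast display cells were stained with 10% biotinylated, detergent-solubilized Sf9 membrane reagent for 1 hour at 4 °C, enriched on streptavidin microbeads and sorted by FACS. The low and high (top ~1%) gates were set on anti-HA fluorescence for expression and streptavidin fluorescence for reagent binding.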

Question: For “QVQLVESGGGLVQAGGSLRLICAASGRTFKQYAMGWSRQAPGTERELVAAITSSGGSTYYADSVKGRFTISRDNAKNTVYLQMNSLKPEDTAVYYCAAATRGSGRRYDYWGQGTQVTVSS”, which “polyreactivity (PSR sort gate)” value is on record?
Answer: high polyreactivity

Question: With “QVQLVESGGGLVQAGGSLRLICAASGRTFVYYAMGWYRQAPGKERELVAAISGGGSKTYADSVKGRFTISRDNAKYTVYLLMNSLKPEDTAVYYCGKSVWRRYYYWGQGNQVTVSS” as the sequence, how does the “polyreactivity (PSR sort gate)” value read?
Answer: high polyreactivity

Question: For “QVQLVESGGGLVQAGGSLRLICAASGRTFYIYTMGWYREAPGKERELVAAISSSGDSTYYADSLKGRFTISRDNAKNTVYLQMNSLKPEDTAVYYCAAYPTYPDEYWGEGTQVTVSS”, which “polyreactivity (PSR sort gate)” value is on record?
Answer: low polyreactivity

Question: With “QVQLVESGGGLVQAGGSLRLICAASGRTFYKYAMGWYRQAPGKEREFVADISSRGGSTYYADSVKGRFTISRDNAKNTVYLQMNSLKPEDTSVYYCAAFSDLTFWHHFSELYYWGQGTQVTVSS” as the sequence, how does the “polyreactivity (PSR sort gate)” value read?
Answer: high polyreactivity

Question: For “QVQLVESGGGLVQAGGSLRLICAASGRTSGGNGMGWYRQAPGKERELVAAITWDGDSTYADSVKGRFTISRDNAKNTDYFQMNSLKPEDTAVYYCAAGVYQSDYYYWGQGTQVTVSS”, which “polyreactivity (PSR sort gate)” value is on record?
Answer: low polyreactivity

Question: Which “polyreactivity (PSR sort gate)” value does the source give for “QVQLVESGGGLVQAGGSLRLICAASGRTYHGYAMGWYRQAPGKERELVAAITSSGARTYYADSVKGRFTLSRDNAKKTVYLQMNSLKPEDTAVYYCAVNWLRGMDWGQGTQVTVSS” here?
Answer: high polyreactivity

Question: Which “polyreactivity (PSR sort gate)” value does the source give for “QVQLVESGGGLVQAGGSLRLICAASGSIFASYVMGWYRQAPGKERDLVAAITSRGTSTYYADSVKGRFTISRDNAKNTVYFQINSLKTEDTAVYYCAARLYGSAPQHEYWGKGTQVTVSS” here?
Answer: low polyreactivity

Question: With “QVQLVESGGGLVQAGGSLRLICAASGSIFDRYAMGWYRPAPGKDRELVAAITGSGGSTYYADSVKGRFRISRDNAKNTVYLQMNSLKPEDTAVYYGNARARGAYVRYGYWGQGTQVTVSS” as the sequence, how does the “polyreactivity (PSR sort gate)” value read?
Answer: high polyreactivity

Question: Which “polyreactivity (PSR sort gate)” value does the source give for “QVQLVESGGGLVQAGGSLRLICAASGSIFDRYVMGWYRQAPGKERELVAAITTSGDGTYYADSVKGRFTISRDNAKNTVYLQMNSLKPEDTAVYYCAAVRRSWKYSTSDYWGQGTQVTVSS” here?
Answer: low polyreactivity

Question: Which “polyreactivity (PSR sort gate)” value does the source give for “QVQLVESGGGLVQAGGSLRLICAASGSIFDTYAMGWYRQAPGKERELLATISWSGDSTYYADSVKGRFTISRDNAKNTVYLQMNCLKPEDTAVYYCAADVGQVSDHEDYDYWGQGTQVTVSS” here?
Answer: low polyreactivity

Question: For “QVQLVESGGGLVQAGGSLRLICAASGSIFFYYAMGWYRQAPGKERELVAAITKIGVGTFYADSVKGRFTISRDNAKNTVYLQMNSLKPEDTAVYYCNARTAWEGYDYWGQGTQVTVSS”, which “polyreactivity (PSR sort gate)” value is on record?
Answer: low polyreactivity

Question: Which “polyreactivity (PSR sort gate)” value does the source give for “QVQLVESGGGLVQAGGSLRLICAASGSIFPRYVMGWSRQAPGKERELVAAITRRGGSTYYADSVKGRFTISRDNAKHTVYLQMNSLKPADTAVYYCNAKYRLEMDWGQGTQVTVSS” here?
Answer: high polyreactivity

Question: Which “polyreactivity (PSR sort gate)” value does the source give for “QVQLVESGGGLVQAGGSLRLICAASGSIFRLNTMGWYRQAPGKERELVAAIFTSGGSTYADSVKGRFTISRDNAKNTVYLQMNSLKPEDTAVYYCAGMDYWGQGTQVTVSS” here?
Answer: low polyreactivity

Question: For “QVQLVESGGGLVQAGGSLRLICAASGSIFRNNARGWYRQAAGKERELVAVISRRSGNTYYADSVKGRFTISRDNAKNTVYLQMNSLKPEDTAVYYCAADYSKSSIRGDYWGQGTQVTVSS”, which “polyreactivity (PSR sort gate)” value is on record?
Answer: low polyreactivity

Question: For “QVQLVESGGGLVQAGGSLRLICAASGSIFRPNAMGWYRQAPGKEREFVASISGRVGSTYYADSVKGRFTISRDNAKNTVYLQMNSLKPEDTAVYYCAADFPTDKLSNFPITEYGYWGQGTQVTVSS”, which “polyreactivity (PSR sort gate)” value is on record?
Answer: high polyreactivity

Question: With “QVQLVESGGGLVQAGGSLRLICAASGSIFSENTMGWYRQAPGKERELVAAISWSGGSTKYADSVKGRFTISRDNAQITVYLQMNCLKPEDTSVYNCGTDIHDDTGAYDYWGQCTQVTVSS” as the sequence, how does the “polyreactivity (PSR sort gate)” value read?
Answer: low polyreactivity

Question: With “QVQLVESGGGLVQAGGSLRLICAASGSIFSTYTMGWYRQAPGKERELVAAITRSGGSTYYADSVKGRFTISRDNAKNTVYLQMNSLKPEDTAVYYCAAKGKRLRSYYQRYYYWGQGTQVTVSS” as the sequence, how does the “polyreactivity (PSR sort gate)” value read?
Answer: high polyreactivity

Question: For “QVQLVESGGGLVQAGGSLRLICAASGSIFTPYVMGWYRQAPGKEREFVAAITQRGGRTYYADSVKGRFTISRDNAKNTVYLQMNSLKPEDTAVYYCAKTSVSRTYHRSAYDYWGQGTQVTVSS”, which “polyreactivity (PSR sort gate)” value is on record?
Answer: high polyreactivity

Question: With “QVQLVESGGGLVQAGGSLRLICAASGSIFTYYTMGWYRQAPGKERELVAAIRWSAGRTYYADSVKGRFTISRDNAKNSVYLQMNSLKPEDTSVYYCAAAERLRHGLKFDYWGQGTQVTVSS” as the sequence, how does the “polyreactivity (PSR sort gate)” value read?
Answer: high polyreactivity

Question: Which “polyreactivity (PSR sort gate)” value does the source give for “QVQLVESGGGLVQAGGSLRLICAASGSIFVGYAMGWCRQAPGKERELVAAIRSGGSTKYADSVKGRFTISRDNAKNTVYLQMNSLKPEDTAVYYCNVEVHPYYWVDNFHRFPVLHNYWGQGTQVTVSS” here?
Answer: low polyreactivity

Question: Which “polyreactivity (PSR sort gate)” value does the source give for “QVQLVESGGGLVQAGGSLRLICAASGSIRYYAMGWYTQAPGKEREFVAAISRRGSSTNYADSVKGRFTISRDNAKNTVYLQMNSLNPEDTAVYNCAAAARAGLKRYYYWGQGTQVTVSS” here?
Answer: high polyreactivity

Question: Which “polyreactivity (PSR sort gate)” value does the source give for “QVQLVESGGGLVQAGGSLRLICAASGSISYINAMGWYRQATGKERELDARIRSGDPTNYADSVKGRFTISRDNAKNTVYLQMNSLKPEDTAVYYCARRVTGTLYYTGYDYWGQGTQVTVSS” here?
Answer: high polyreactivity

Question: With “QVQLVESGGGLVQAGGSLRLICAASGSTFAYNYMGWYRQAPGKERELVPDIRSGGNTNYADSVKGRFTISRDNAKNTVYLQMNSLKPEDTAVYYCATDGYRIDVYHPDYRYDYWGQGTQVTVSS” as the sequence, how does the “polyreactivity (PSR sort gate)” value read?
Answer: low polyreactivity

Question: Which “polyreactivity (PSR sort gate)” value does the source give for “QVQLVESGGGLVQAGGSLRLICAASGSTFDVNAMGWYRQAPGKERELVAAISWNSGSTYYADSVKGRFTISRDNAKNTVYLQMNSLKPEDTAVYYCAATYGTGRRSKYGYWGQGTQVTVSS” here?
Answer: high polyreactivity

Question: Which “polyreactivity (PSR sort gate)” value does the source give for “QVQLVESGGGLVQAGGSLRLICAASGSTFFANAMGWYRPAPGKERELVAVITYSGGSTYYADSVKGRFTISRYNAKNTVYLQMNSLKPEDTAVDYCAAKSYFRPYSYSYSYWGQGTQVTVSS” here?
Answer: high polyreactivity

Question: With “QVQLVESGGGLVQAGGSLRLICAASGSTFGFNAMGWYRQAPGKERELVAAITFSGGTTYYADSVKGRFTISRDNAKNTVYVQMNSLKPDDTAVYYCNAEWWYHYTGPFAPWGEDYWGQGTQVTVSS” as the sequence, how does the “polyreactivity (PSR sort gate)” value read?
Answer: low polyreactivity

Question: For “QVQLVESGGGLVQAGGSLRLICAASGSTFHAYAMGWYRQAPGKERDLVAAITWSGDSTYADSVKGRFTISRDKAKNTFFLQMNSLKPEETAVYDCACRGFLGHWPRPSYDYWGQGTQVTVSS”, which “polyreactivity (PSR sort gate)” value is on record?
Answer: low polyreactivity

Question: For “QVQLVESGGGLVQAGGSLRLICAASGSTFKRYAMGWYRQAPGKERELVAAISTRGSTYYADSVKGRFTISRDNAKNTVYLQMNSLKPEDTAVYYCNARQALVWKWSWYSPGYDYWGQGTQVTVSS”, which “polyreactivity (PSR sort gate)” value is on record?
Answer: low polyreactivity

Question: With “QVQLVESGGGLVQAGGSLRLICAASGSTFTQNAMGWYRQAPGKERELVAAISSSGTRTYYADSVKGRFTISRDNAKNTVYLQMNSLKPEDTAVYYCAATVYPSVYGENHYGYWGQGTKVTVSS” as the sequence, how does the “polyreactivity (PSR sort gate)” value read?
Answer: high polyreactivity

Question: For “QVQLVESGGGLVQAGGSLRLICAASGSTFWPYARGWYRQAPGNERELVAAITWSGGRTYYADSVKGRFTISRDNAKNTVYLQMNSLKPEDTAVYYCAADSYVLGRWYGYWGQGTQVTVSS”, which “polyreactivity (PSR sort gate)” value is on record?
Answer: low polyreactivity

Question: Which “polyreactivity (PSR sort gate)” value does the source give for “QVQLVESGGGLVQAGGSLRLICAASGSTLKYYAMGWSRPAPGKERELVARITRSSGSTYYADSVKGRFTISRDNAKNTVYLQMNSMKPEDTAVYYCNKVYKSYYWGGYDWGQGTQVTVSS” here?
Answer: high polyreactivity

Question: Which “polyreactivity (PSR sort gate)” value does the source give for “QVQLVESGGGLVQAGGSLRLICAASGSTLYRNAMGWYRQARGKERELVAAISSSGGTTFYADSVKGRFTISRDNAKNTVYLQMNSLKPEDTAVYYCNRTARKLLTVHSSVVGLDYWGQGSQVTVSS” here?
Answer: low polyreactivity

Question: With “QVQLVESGGGLVQAGGSLRLICAASGSTSYVYAMGWYRQAPGKERELVAAISGSGGRTYYADSVKGRFTISRDNAKNTVYLQMNSLKPEDTAVYYCNALPRPSYPFEYWGQGTQVTVSS” as the sequence, how does the “polyreactivity (PSR sort gate)” value read?
Answer: high polyreactivity

Question: For “QVQLVESGGGLVQAGGSLRLICAASGSTTFYAKGWYRPAPGKEWELVATISSSAGSTYYADSVKGRFTISRDNAKNNVYLEMNSLIPEDTAVFYCDAKYSQLRQYYRLDYWGQGTQVTVSS”, which “polyreactivity (PSR sort gate)” value is on record?
Answer: low polyreactivity

Question: Which “polyreactivity (PSR sort gate)” value does the source give for “QVQLVESGGGLVQAGGSLRLICAASGSTYSVYAMVWYRQAPGKERELVATITWNGGRTYYADSVKGRFTISRDNAKNTVYLQMNSLKPEDTAVYYCAADGWTSIGGPDYQHDYWGQGTQVTVSS” here?
Answer: high polyreactivity

Question: With “QVQLVESGGGLVQAGGSLRLICAASGSTYYDYAMGWYRQAPGKERELVAGISRSGGSTYYADSVKGRFTISRDNAKNSVYLQMNSLKPEDTAVYYCAARNYRYLYRIEYWGQGTQVTVSS” as the sequence, how does the “polyreactivity (PSR sort gate)” value read?
Answer: high polyreactivity

Question: For “QVQLVESGGGLVQAGGSLRLICAASGTFTSNAMGWYRQAPGKERELVAVITSTDSTNYADSVKGRFTISRDNAKNTVYLPLNSLKPEDTAVYYCAGSKYTVVQQYWDVLFDYWGQGTQVTVSS”, which “polyreactivity (PSR sort gate)” value is on record?
Answer: low polyreactivity

Question: Which “polyreactivity (PSR sort gate)” value does the source give for “QVQLVESGGGLVQAGGSLRLICAASGYIFKHNAMGWYRQAPGKERELVAAISWSGVSTYYADSVTGRFTISRDNAKNTVYLQMNSLKPEDTAVYYCNAPAIAPIYDYWGQGTQVTVSS” here?
Answer: low polyreactivity

Question: With “QVQLVESGGGLVQAGGSLRLICAASGYILWKAMGWYRQAPGKERELVAAIRFRVGSTSYADSVKGRFTISRDNAKNTVYLQMNSLKPVYTAVYYCTARWWVIRPYQRHDYWGQGTQVTVSS” as the sequence, how does the “polyreactivity (PSR sort gate)” value read?
Answer: low polyreactivity

Question: With “QVQLVESGGGLVQAGGSLRLICAASGYTFEYNAMGWSRQAPGKEREFVATITASGDSTYYADSVKGRFTISRDNAKNTVYLQMNSLKPEDTAVYYCATEKRDVYFTAKYDYWGQGTQVTVSS” as the sequence, how does the “polyreactivity (PSR sort gate)” value read?
Answer: low polyreactivity

Question: Which “polyreactivity (PSR sort gate)” value does the source give for “QVQLVESGGGLVQAGGSLRLICAASGYTFFFYAMGWYRQAPGKEREFVAAITWRGDSTYYADSVKGRYTISRDNAKNTVYLQMNSLKPEDTAVYYCAADPGFTWSRRMDYWGHGTQVTVSS” here?
Answer: low polyreactivity

Question: With “QVQLVESGGGLVQAGGSLRLICAASGYTFPDYAMGWYRPAPGTERELVAAIRSGGGTNYADSVKGRFTISRDNAKNSVYLQMNSMKPEDTAVFYCAKEWAGGLYDYWGQGTQVTVSS” as the sequence, how does the “polyreactivity (PSR sort gate)” value read?
Answer: low polyreactivity

Question: Which “polyreactivity (PSR sort gate)” value does the source give for “QVQLVESGGGLVQAGGSLRLICAASGYTFPYAMGWYRQAPGKERELVAAISRSGASTYYADSVKGRFTISRDNAKNTVYLQMNSLKPEDTAVYYCATRRVYSTRVKFYYWGQGTQVTVSS” here?
Answer: high polyreactivity
